Where a chain is given by its changes, count along the chain named.
Columns and labels:
Settings in all cases: tags: SV40 NLS; chain copies: 2
[1] = target: T1, Cas-alpha 10 E81G (Syntrophomonas palmitatica, UniProt P0DW62 SEQ:1-497); assay: cell_activity; PAM 5'-TTC; yeast, 45 C
T1 chain: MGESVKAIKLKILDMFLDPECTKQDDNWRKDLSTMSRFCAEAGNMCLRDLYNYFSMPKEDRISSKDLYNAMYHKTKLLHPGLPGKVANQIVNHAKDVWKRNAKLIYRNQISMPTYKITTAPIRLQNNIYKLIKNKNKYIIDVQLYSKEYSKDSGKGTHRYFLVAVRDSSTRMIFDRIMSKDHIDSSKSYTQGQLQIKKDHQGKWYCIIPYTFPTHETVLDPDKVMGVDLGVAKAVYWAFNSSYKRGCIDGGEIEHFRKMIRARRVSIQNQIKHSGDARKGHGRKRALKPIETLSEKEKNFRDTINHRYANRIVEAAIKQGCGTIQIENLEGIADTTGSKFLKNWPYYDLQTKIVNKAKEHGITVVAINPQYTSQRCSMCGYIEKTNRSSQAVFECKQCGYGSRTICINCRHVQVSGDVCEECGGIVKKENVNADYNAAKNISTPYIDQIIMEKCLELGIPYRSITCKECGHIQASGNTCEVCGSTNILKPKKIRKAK

[2] = target: T2, Cas-alpha 10 A40G (Syntrophomonas palmitatica, UniProt P0DW62 SEQ:1-497); assay: cell_activity; PAM 5'-TTC; yeast, 45 C
T2 chain: T1 chain with A40G, G81E

[3] = target: T3, Cas-alpha 10 A40G+E81G (Syntrophomonas palmitatica, UniProt P0DW62 SEQ:1-497); assay: cell_activity; PAM 5'-TTC; yeast, 45 C; >10-fold sectored colonies at 37 C
T3 chain: T1 chain with A40G
Method: The cells were then resuspended in 1 ml of EZ 2 solution and aliquoted and either stored at −70° C. or used in the next step. Transformation was performed next by adding 0.5-1 μg (in less than 5 μl) of 2 micron yeast plasmid DNA to 50 μl of competent cells. Optionally, double-stranded DNA repair template with homology flanking the expected Cas-alpha double-strand break site was also included (0.5 μl at 50 μM). After gently mixing in the DNA, 500 μl of EZ 3 solution was added. Next, cells were incubated at 30° C. for 60-90 min. flicking or vortexing the cells 3-4 times over the duration of the incubation. After transformation, cells were grown-out in YPD broth for ˜3 hours, pelleted, washed once with 1 ml of sterile water, resuspended in 1 ml of sterile water, and then ˜200 μl plated onto selective media (for example but not limited to 6.7 g/L yeast nitrogen base without amino acids (Becton Dickinson), 20 g/L glucose (Phytotechnology Labs), 1.92 g/L yeast histidine dropout media (MP Biomedicals) and 20 g/L Bacto Agar (Becton Dickinson)). To determine the culture conditions optimal for activity, cells were incubated at 30° C. until colonies formed, or at a range of temperatures (typically 37° C. and 45° C.) overnight and then placed back at 30° C. until colony growth was visible. […]

[4] = target: T4, Cas-alpha 10 A40G+E81G+T335R (Syntrophomonas palmitatica, UniProt P0DW62 SEQ:1-497); assay: cell_activity; PAM 5'-TTC; maize, 37 C
T4 chain: T1 chain with A40G, T335R

[5] = target: T3, Cas-alpha 10 A40G+E81G; assay: cell_activity; PAM 5'-TTC; maize, 37 C

B1: sgRNA1, ade2 target 2, 20 nt spacer ; ade2 target 2 (ssRNA ; dsDNA)
RNA: AUUUACUCUGUUUCGCGCGCCAGGGCAGUUAGGUGCCCUAAAAGAGCGAAGUGGCCGAAAGGAAAGGCUAACGCUUCUCUAACGCUACGGCGACCUUGGCGAAAUGCCAUCAAUACCACGCGGCCCGAAAGGGUUCGCGCGAAACUGAGUAAUGAAAGUCGCAUCUUGCGUAAGCGCGUGGAUUGAAACUUUAGUGUAGGAACAUCAAC
DNA 1: TTTAGTGTAGGAACATCAAC
DNA 2: GTTGATGTTCCTACACTAAA
- binding signal [1]: ~2 fold vs wild type (red colonies, score 2)
- binding signal [2]: ~2 fold vs wild type (red colonies, score 2)
- binding signal [3]: ~3 fold vs wild type (red colonies, score 2)

B2: sgRNA IR ; IR target (ssRNA ; dsDNA)
RNA: AUUUACUCUGUUUCGCGCGCCAGGGCAGUUAGGUGCCCUAAAAGAGCGAAGUGGCCGAAAGGAAAGGCUAACGCUUCUCUAACGCUACGGCGACCUUGGCGAAAUGCCAUCAAUACCACGCGGCCCGAAAGGGUUCGCGCGAAACUGAGUAAUGAAAGUCGCAUCUUGCGUAAGCGCGUGGAUUGAAACCACAGGGAGGGAGCAAACAA
DNA 1: CACAGGGAGGGAGCAAACAA
DNA 2: TTGTTTGCTCCCTCCCTGTG
- binding signal [4]: ~17 fold vs wild type indels
- binding signal [5]: ~5 fold vs wild type indels

Source: patent publication US20230392135, “ENGINEERED CAS ENDONUCLEASE VARIANTS FOR IMPROVED GENOME EDITING” (PIONEER HI-BRED INTERNATIONAL, INC., published 2023)
